This note sets out measurements from patent US20260042847A1 (Zymeworks, published 2026).

The target of assay [1] is T1, c-Met (UniProt P08581 25-1390, limits assumed).
T1 construct: whole, on cells; Target on cells
The experiment in a line: flow cytometry on H292 cells, apparent Kd.

The target of assay [2] is T1, c-Met. The experiment in a line: flow cytometry on EBC-1 cells, apparent Kd.
Assay [3] has as its target T1, c-Met. The experiment in a line: flow cytometry on BT-20 cells, apparent Kd.
The target of assay [4] is T1, c-Met. The experiment in a line: flow cytometry on EBC-1 cells, apparent Kd. This is another data set of the same source.
Assay [5] has as its target T2, Human FcRn with a C-terminal biotin on the large subunit (Human, UniProt P55899 24-297; P61769 21-119, C-terminal biotin).
T2 construct: Captured on neutravidin for SPR; also called neonatal Fc receptor
Put plainly: SPR, FcRn captured, antibody injected, pH 5.9.

A further assay has as its target CD64a (FcγRI) (UniProt P12314 16-288, limits assumed). Put plainly: SPR, antibody captured on Protein A, FcγR injected.
In assay [6] the target is T3, CD32a (FcγRIIA), allelic form His131 (UniProt P12318 36-218, limits assumed).
T3 construct: also called CD32aH
T3 sequence (looked up): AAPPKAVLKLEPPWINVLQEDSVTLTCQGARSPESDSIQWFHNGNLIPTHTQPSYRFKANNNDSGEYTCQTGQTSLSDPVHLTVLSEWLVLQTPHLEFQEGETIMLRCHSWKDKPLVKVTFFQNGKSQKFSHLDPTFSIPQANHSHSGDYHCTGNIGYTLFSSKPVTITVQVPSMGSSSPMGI
Put plainly: SPR, antibody captured on Protein A, FcγR injected.

Assay [7] has as its target T4, CD32a (FcγRIIA), allelic form Arg131 (UniProt P12318 36-218, limits assumed).
T4 construct: also called CD32aR
T4 sequence (looked up): T3 sequence (looked up) with H132R
Put plainly: SPR, antibody captured on Protein A, FcγR injected.

Another assay deals with T5, CD32b (FcγRIIB) (UniProt P31994 43-217, limits assumed).
T5 construct: The 'Y' of CD32bY is not explained; also called CD32bY
T5 sequence (looked up): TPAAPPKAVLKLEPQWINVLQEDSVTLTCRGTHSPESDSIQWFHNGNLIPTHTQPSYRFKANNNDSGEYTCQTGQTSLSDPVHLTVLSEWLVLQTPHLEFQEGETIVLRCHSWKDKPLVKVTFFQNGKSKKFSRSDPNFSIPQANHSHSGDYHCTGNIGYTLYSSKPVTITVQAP
Put plainly: SPR, antibody captured on Protein A, FcγR injected.

Assay [8] addresses CD16a (FcγRIIIA), allelic form F158 (UniProt P08637 17-208). The experiment in a line: SPR, antibody captured on Protein A, FcγR injected.
Assay [9] has as its target T6, CD16a (FcγRIIIA), allelic form V158 (UniProt P08637 17-208).
T6 construct: also called CD16aV
Put plainly: SPR, antibody captured on Protein A, FcγR injected.

Assay [10] has as its target T1, c-Met. The experiment in a line: flow cytometry on EBC-1 cells.

Changes are numbered by the printed parent chain.

T1 sequence (P08581 25-1390 limits assumed): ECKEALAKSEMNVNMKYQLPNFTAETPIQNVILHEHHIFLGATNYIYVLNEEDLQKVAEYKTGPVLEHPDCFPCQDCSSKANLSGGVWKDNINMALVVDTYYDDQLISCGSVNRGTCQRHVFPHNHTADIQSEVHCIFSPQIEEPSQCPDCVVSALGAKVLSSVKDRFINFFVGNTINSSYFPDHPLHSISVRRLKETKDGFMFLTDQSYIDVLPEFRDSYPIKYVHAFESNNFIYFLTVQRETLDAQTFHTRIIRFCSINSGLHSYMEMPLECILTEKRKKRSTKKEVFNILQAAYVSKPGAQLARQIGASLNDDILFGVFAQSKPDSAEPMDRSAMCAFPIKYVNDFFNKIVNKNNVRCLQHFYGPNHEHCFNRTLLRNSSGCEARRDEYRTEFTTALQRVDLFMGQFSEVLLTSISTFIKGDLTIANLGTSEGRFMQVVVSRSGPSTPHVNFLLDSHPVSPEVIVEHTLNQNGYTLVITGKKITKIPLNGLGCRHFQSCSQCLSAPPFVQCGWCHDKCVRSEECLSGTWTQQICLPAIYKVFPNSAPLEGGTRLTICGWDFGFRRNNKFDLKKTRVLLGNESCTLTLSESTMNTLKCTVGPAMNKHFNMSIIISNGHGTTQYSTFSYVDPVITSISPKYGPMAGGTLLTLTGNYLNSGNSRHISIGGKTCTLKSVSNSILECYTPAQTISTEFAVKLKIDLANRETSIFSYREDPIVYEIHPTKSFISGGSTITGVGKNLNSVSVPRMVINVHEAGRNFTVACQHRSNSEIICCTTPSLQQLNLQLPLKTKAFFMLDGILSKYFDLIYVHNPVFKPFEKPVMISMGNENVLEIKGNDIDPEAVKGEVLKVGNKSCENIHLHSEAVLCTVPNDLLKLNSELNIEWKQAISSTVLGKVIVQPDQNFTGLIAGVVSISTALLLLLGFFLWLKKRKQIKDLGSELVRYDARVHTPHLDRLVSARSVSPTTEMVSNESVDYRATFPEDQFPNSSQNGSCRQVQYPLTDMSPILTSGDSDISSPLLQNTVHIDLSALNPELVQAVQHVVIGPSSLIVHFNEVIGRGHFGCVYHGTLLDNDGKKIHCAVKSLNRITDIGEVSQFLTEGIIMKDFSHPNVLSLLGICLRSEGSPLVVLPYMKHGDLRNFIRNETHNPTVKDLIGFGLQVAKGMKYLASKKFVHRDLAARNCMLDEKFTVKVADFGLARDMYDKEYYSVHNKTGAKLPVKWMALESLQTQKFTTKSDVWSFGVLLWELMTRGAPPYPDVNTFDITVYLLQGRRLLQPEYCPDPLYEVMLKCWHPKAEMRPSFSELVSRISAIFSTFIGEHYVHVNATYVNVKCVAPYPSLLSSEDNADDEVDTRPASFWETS
T2 sequence (P55899 24-297 limits assumed, chain 1 of 2): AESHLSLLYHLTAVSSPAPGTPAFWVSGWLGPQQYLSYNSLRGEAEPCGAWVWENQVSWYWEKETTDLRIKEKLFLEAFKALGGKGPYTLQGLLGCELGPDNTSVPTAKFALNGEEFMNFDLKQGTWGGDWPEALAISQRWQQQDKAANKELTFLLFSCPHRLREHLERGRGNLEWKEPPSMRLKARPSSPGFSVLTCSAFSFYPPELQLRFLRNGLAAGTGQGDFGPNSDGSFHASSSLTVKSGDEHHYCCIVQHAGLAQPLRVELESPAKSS
T2 sequence (P61769 21-119 limits assumed, chain 2 of 2): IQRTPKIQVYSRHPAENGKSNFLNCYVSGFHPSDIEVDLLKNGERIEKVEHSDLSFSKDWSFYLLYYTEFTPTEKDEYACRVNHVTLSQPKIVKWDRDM
Chain of CD64a (FcγRI) (P12314 16-288 limits assumed): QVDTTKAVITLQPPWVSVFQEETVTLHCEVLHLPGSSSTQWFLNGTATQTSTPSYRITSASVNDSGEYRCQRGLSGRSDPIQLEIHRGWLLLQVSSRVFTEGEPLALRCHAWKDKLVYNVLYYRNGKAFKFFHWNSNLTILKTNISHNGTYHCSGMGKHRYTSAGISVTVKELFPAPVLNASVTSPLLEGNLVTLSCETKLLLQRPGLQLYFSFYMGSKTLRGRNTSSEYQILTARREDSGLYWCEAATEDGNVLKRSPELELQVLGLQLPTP
Chain of CD16a (FcγRIIIA), allelic form F158 (P08637 17-208 limits assumed): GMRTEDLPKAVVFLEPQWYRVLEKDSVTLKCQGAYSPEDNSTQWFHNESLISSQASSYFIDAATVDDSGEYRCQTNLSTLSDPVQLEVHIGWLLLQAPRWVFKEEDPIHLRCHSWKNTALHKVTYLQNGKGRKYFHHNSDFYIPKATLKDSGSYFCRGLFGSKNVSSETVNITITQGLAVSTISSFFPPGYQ
T6 sequence (P08637 17-208 F176V limits assumed): as the sequence (P08637 17-208 limits assumed) above, with F160V counted along it

B1: v17427 (antibody)
chain 1: QVQLVQSGAEVKKPGASVKVSCKASGYIFTAYTMHWVRQAPGQGLEWMGWIKPNNGLANYAQKFQGRVTMTRDTSISTAYMELSRLRSDDTAVYYCARSEITTEFDYWGQGTLVTVSSASTKGPSVFPLAPSSKSTSGGTAALGCLVKDYFPEPVTVSWNSGALTSGVHTFPAVLQSSGLYSLSSVVTVPSSSLGTQTYICNVNHKPSNTKVDKKVEPKSCDKTHTCPPCPAPELLGGPSVFLFPPKPKDTLMISRTPEVTCVVVDVSHEDPEVKFNWYVDGVEVHNAKTKPREEQYNSTYRVVSVLTVLHQDWLNGKEYKCKVSNKALPAPIEKTISKAKGQPREPQVYVYPPSRDELTKNQVSLTCLVKGFYPSDIAVEWESNGQPENNYKTTPPVLDSDGSFALVSKLTVDKSRWQQGNVFSCSVMHEALHNHYTQKSLSLSPG
chain 2: not shown
chain 3: not shown
B1: the Kd came to 0.02 nM with c-Met [1]; 0.1 nM with c-Met [2]; 0.02 nM in the assay with c-Met [3]; 0.14 nM in the assay with c-Met [4]; 297 nM in assay [5]; 0.0486 nM with CD64a (FcγRI). For the same molecule, the Kd in assay [6] was 410 nM; in assay [7], 588 nM; with CD32b (FcγRIIB) it was 2630 nM; in assay [8], 1450 nM; in assay [9], 461 nM.

B2: v29001 (antibody)
chain 1: QVQLVQSGAEVKKPGASVKVSCKASGYIFTAYTMHWVRQAPGQGLEWMGWIKPNNGLANYAQKFQGRVTMTRDTSISTAYMELSRLRSDDTAVYYCARSEITTEFDYWGQGTLVTVSSASTKGPSVFPLAPSSKSTSGGTAALGCLVKDYFPEPVTVSWNSGALTSGVHTFPAVLQSSGLYSLSSVVTVPSSSLGTQTYICNVNHKPSNTKVDKKVEPKSCDKTHTCPPCPAPELLGGPSVFLFPPKPKDTLMISRTPEVTCVVVDVSHEDPEVKFNWYVDGVEVHNAKTKPREEQYNSTCYRVVSVLTVLHQDWLNGKEYKCKVSNKALPAPIEKTISKAKGQPREPQVYVYPPSRDELTKNQVSLTCLVKGFYPSDIAVEWESNGQPENNYKTTPPVLDSDGSFALVSKLTVDKSRWQQGNVFSCSVMHEALHNHYTQKSLSLSPG
chain 2: B2 chain 1 with Y353L, T368L, K394L, T396W, A407F, V409Y
chain 3: not shown
Turning to B2, the “fold greater Kd against control v17427” value with c-Met [10] amounted to 5 fold. Also, the Kd with c-Met [2] is 0.57 nM; in assay [5], 208 nM; with CD64a (FcγRI), 143 nM.
